Reference: publication PMC5983932 (Oncology Reports, 2018)

B1: GST-ER-α36 fusion protein (receptor, UniProt P03372-4 1-310, looked up)
chain: MAMESAKETRYCAVCNDYASGYHYGVWSCEGCKAFFKRSIQGHNDYMCPATNQCTIDKNRRKSCQACRLRKCYEVGMMKGGIRKDRRGGRMLKHKRQRDDGEGRGEVGSAGDMRAANLWPSPLMIKRSKKNSLALSLTADQMVSALLDAEPPILYSEYDPTRPFSEASMMGLLTNLADRELVHMINWAKRVPGFVDLTLHDQVHLLECAWLEILMIGLVWRSMEHPGKLLFAPNLLLDRNQGKCVEGMVEIFDMLLATSSRFRMMNLQGEEFVCLKSIILLNSGISHVEAKKRILNLHPKIFGNKWFPRV
B2: recombinant human His-tag-PRMT2 protein (protein arginine N-methyltransferase 2) (enzyme, UniProt P55345-1 1-433, looked up)
chain: MATSGDCPRSESQGEEPAECSEAGLLQEGVQPEEFVAIADYAATDETQLSFLRGEKILILRQTTADWWWGERAGCCGYIPANHVGKHVDEYDPEDTWQDEEYFGSYGTLKLHLEMLADQPRTTKYHSVILQNKESLTDKVILDVGCGTGIISLFCAHYARPRAVYAVEASEMAQHTGQLVLQNGFADIITVYQQKVEDVVLPEKVDVLVSEWMGTCLLFEFMIESILYARDAWLKEDGVIWPTMAALHLVPCSADKDYRSKVLFWDNAYEFNLSALKSLAVKEFFSKPKYNHILKPEDCLSEPCTILQLDMRTVQISDLETLRGELRFDIRKAGTLHGFTAWFSVHFQSLQEGQPPQVLSTGPFHPTTHWKQTLFMMDDPVPVHTGDVVTGSVVLQRNPVWRRHMSVALSWAVTSRQDPTSQKVGEKVFPIWR

Experiments:
[1] = target: B2; assay: pull-down
[2] = target: T1, GST-ER-α66 fusion protein (UniProt P03372 1-595); assay: pull-down
T1 sequence (looked up): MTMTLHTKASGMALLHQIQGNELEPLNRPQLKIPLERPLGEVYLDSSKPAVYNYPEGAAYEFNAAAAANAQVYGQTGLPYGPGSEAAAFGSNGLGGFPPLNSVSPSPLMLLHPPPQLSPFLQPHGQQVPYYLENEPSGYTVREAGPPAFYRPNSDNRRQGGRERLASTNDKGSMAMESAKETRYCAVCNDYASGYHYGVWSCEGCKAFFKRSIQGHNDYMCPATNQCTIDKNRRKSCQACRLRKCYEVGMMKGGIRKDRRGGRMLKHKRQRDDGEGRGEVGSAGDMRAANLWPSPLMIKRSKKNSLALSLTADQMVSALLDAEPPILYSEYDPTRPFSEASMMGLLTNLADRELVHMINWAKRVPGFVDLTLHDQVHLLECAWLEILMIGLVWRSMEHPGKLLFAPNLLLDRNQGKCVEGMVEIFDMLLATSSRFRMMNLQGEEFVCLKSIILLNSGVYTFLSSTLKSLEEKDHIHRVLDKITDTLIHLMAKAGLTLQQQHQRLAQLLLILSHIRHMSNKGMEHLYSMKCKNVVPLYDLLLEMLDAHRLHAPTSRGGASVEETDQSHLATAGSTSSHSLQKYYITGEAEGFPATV

| Binder | binding result [1] | binding result [2] |
| --- | --- | --- |
| B1 | binds | – |
| B2 | – | binds |
